The values below come from the supplement of paper PMC11780869.

In this series the test system is Bacillus subtilis. The series can be described thus: cleaved RNA product abundance (RNA/gDNA barcode ratio) relative to median wild-type variant (ratio to wild type); higher = more accumulation of the downstream cleavage product. Particulars: cleavage site: cggR-gapA (positions -7 to +36 mutated). In a few lines:
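Reporter mRNAs based on truncated aprE or tetM carried barcoded, mutagenized RNase Y cleavage-site windows built from oligos with a 9% error rate and were integrated into the B. subtilis chromosome. Cultures grew in LB at 37°C from OD600 0.0003 to 0.3. Cleaved RNA was gel-selected, reverse transcribed and barcode-sequenced together with genomic DNA barcodes, and UMIs were collapsed. Cleaved product abundance is the per-construct ratio of RNA to gDNA barcodes, scaled to the median of constructs carrying the unmutated site.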

The mark [1] stands for this setting: experiment (reporter, strain, medium): exp 2b: truncated aprE reporter, strain BJT200.
[2] abbreviates: experiment (reporter, strain, medium): exp 4a: truncated aprE reporter, strain BJT201 with 2% xylose (RNase J1 expressed).
[3] abbreviates: experiment (reporter, strain, medium): exp 6: tetM reporter, strain 168.

In the case of “ACAGACGAAGGAGCCGCAAAGAAGTTATGAAGGCATGAATAATCCCTCAATATAAATATCTCTCACTTATTTAAA”, the “cleaved RNA product abundance” value is, setting by setting: under setting [1], 0.108; under setting [2], 0.116. Take “ACAGACGAAGGAGCCGCAAAGAAGTTATGAAGGGACGAATAATCCCTCAATATAAATATCTCTCACTTATTTAAA”: the “cleaved RNA product abundance” value under setting [2] stood at 0.318. Regarding “ACAGACGAAGGAGCCGCAAAGAAGTTATGAAGGGAGGAATAATCCCTCAATATAAATATCTCTCACTTATTTAAA”, the “cleaved RNA product abundance” value under setting [1] was 0.22. Turning to “ACAGACGAAGGAGCCGCAAAGAAGTTATGAAGGGATAAATAATCCCTCAATATAAATATCTCTCACTTATTTAAA”, the “cleaved RNA product abundance” value by setting is: under setting [1], 0.349; under setting [2], 0.542.

As to “ACAGACGAAGGAGCCGCAAAGAAGTTATGAAGGGATGAATAACCCCTCAATATAAATATCTCTCACTTATTTAAA”, the “cleaved RNA product abundance” value under setting [2] came to 0.419. As for “ACAGACGAAGGAGCCGCAAAGAAGTTATGAAGGGATGAATAATCCATCAATATAAATATCTCTCACTTATTTAAA”, the “cleaved RNA product abundance” value under setting [1] is 0.185. On the same count and under the same terms, the figure for “ACAGACGAAGGAGCCGCAAAGAAGTTATGAAGGGATGAATAATCCCACAATATAAATATCTCTCACTTATTTAAA” is 0.138. With “ACAGACGAAGGAGCCGCAAAGAAGTTATGAAGGGATGAATAATCCCTAAATATAAATATCTCTCACTTATTTAAA”, the “cleaved RNA product abundance” value is, setting by setting: under setting [1], 0.38; under setting [2], 0.711.

As for “ACAGACGAAGGAGCCGCAAAGAAGTTATGAAGGGATGAATAATCCCTCAATATAAATATCTCTCACTTATTTAAA”, the “cleaved RNA product abundance” value was found to be 0.384 under setting [1], 0.502 under setting [2] and 0.205 under setting [3].

As to “ACAGACGAAGGAGCCGCAAAGAAGTTATGAAGGGATGAATAATCCCTCAATATACATATCTCTCACTTATTTAAA”, under setting [2], the “cleaved RNA product abundance” value stood at 0.344.

Regarding “ACAGACGAAGGAGCCGCAAAGAAGTTATGAAGGGATGAATAATCCCTCAATATAGATATCTCTCACTTATTTAAA”, the “cleaved RNA product abundance” value under setting [2] stood at 0.446.

Consider “ACAGACGAAGGAGCCGCAAAGAAGTTATGAAGGGATGAATAATCCCTCAATATTAATATCTCTCACTTATTTAAA”, for which the “cleaved RNA product abundance” value under setting [2] stood at 0.125. As to “ACAGACGAAGGAGCCGCAAAGAAGTTATGAAGGGATGAATAATCCCTCTATATAAATATCTCTCACTTATTTAAA”, the “cleaved RNA product abundance” value under setting [2] is 0.516. As to “ACAGACGAAGGAGCCGCAAAGAAGTTATGAAGGGATGAATAATCCCTTAATATAAATATCTCTCACTTATTTAAA”, the “cleaved RNA product abundance” value under setting [2] turned out to be 0.789.

Take “ACAGACGAAGGAGCCGCAAAGAAGTTATGAAGGGATGAATAATCCGTCAATATAAATATCTCTCACTTATTTAAA”: the “cleaved RNA product abundance” value under setting [2] amounted to 0.222. The same measure, in the same setting: then “ACAGACGAAGGAGCCGCAAAGAAGTTATGAAGGGATGAATAATCCTTCAATATAAATATCTCTCACTTATTTAAA”, with 0.441; and “ACAGACGAAGGAGCCGCAAAGAAGTTATGAAGGGATGAATAATCGCTCAATATAAATATCTCTCACTTATTTAAA”, with 0.0808. In the case of “ACAGACGAAGGAGCCGCAAAGAAGTTATGAAGGGATGAATAATTCCTCAATATAAATATCTCTCACTTATTTAAA”, the “cleaved RNA product abundance” value by setting is: under setting [1], 0.274; under setting [2], 0.316.

As for “ACAGACGAAGGAGCCGCAAAGAAGTTATGAAGGGATGAATTATCCCTCAATATAAATATCTCTCACTTATTTAAA”, the “cleaved RNA product abundance” value reads like this: under setting [1], 0.232; under setting [2], 0.343. “ACAGACGAAGGAGCCGCAAAGAAGTTATGAAGGGATGCATAATCCCTCAATATAAATATCTCTCACTTATTTAAA”: under setting [2], the “cleaved RNA product abundance” value was 0.542. On the same count and under the same terms, then “ACAGACGAAGGAGCCGCAAAGAAGTTATGAAGGGATGTATAATCCCTCAATATAAATATCTCTCACTTATTTAAA”, with 0.311.

Turning to “ACAGACGAAGGAGCCGCAAAGAAGTTATGAAGGGATTAATAATCCCTCAATATAAATATCTCTCACTTATTTAAA”, the “cleaved RNA product abundance” value under setting [1] came out at 0.402 and the “cleaved RNA product abundance” value under setting [2] came to 0.476.

In the case of “ACAGACGAAGGAGCCGCAAAGAAGTTATGAAGGTATGAATAATCCCTCAATATAAATATCTCTCACTTATTTAAA”, the “cleaved RNA product abundance” value worked out at 0.113 under setting [1] and 0.0823 under setting [2].

For the sequence “ACAGACGAAGGAGCCGCAAAGAAGTTATGAAGTGATGAATAATCCCTCAATATAAATATCTCTCACTTATTTAAA”, the “cleaved RNA product abundance” value by setting is: under setting [1], 0.0796; under setting [2], 0.0812. With “ACAGACGAAGGAGCCGCAAAGAAGTTATGAATGGATGAATAATCCCTCAATATAAATATCTCTCACTTATTTAAA”, under setting [2], the “cleaved RNA product abundance” value worked out at 0.147. Same read-out and setting: the figure for “ACAGACGAAGGAGCCGCAAAGAAGTTATGACGGGATGAATAATCCCTCAATATAAATATCTCTCACTTATTTAAA” is 0.844. Turning to “ACAGACGAAGGAGCCGCAAAGAAGTTATTAAAAGATGAATAATCCCTCAATATAAATATCTCTCACTTATTTAAA”, the “cleaved RNA product abundance” value came out at 0.107 under setting [1] and 0.0921 under setting [2]. For the sequence “ACAGACGAAGGAGCCGCAAAGAAGTTATTAAAAGATTAATAATCCCTCAATATAAATATCTCTCACTTATTTAAA”, the “cleaved RNA product abundance” value under setting [1] came to 0.104. For the sequence “ACAGACGAAGGAGCCGCAAAGAAGTTATTAAACGATGAATAATCCCTCAATATAAATATCTCTCACTTATTTAAA”, the “cleaved RNA product abundance” value under setting [1] was 0.0904 and the “cleaved RNA product abundance” value under setting [2] is 0.109. The like results for “ACAGACGAAGGAGCCGCAAAGAAGTTATTAAACGATGAATAATCTCTCAATATAAATATCTCTCACTTATTTAAA” were, in that order, 0.109 and 0.179. As to “ACAGACGAAGGAGCCGCAAAGAAGTTATTAAAGAATGAATAATACCTCAATATAAATATCTCTCACTTATTTAAA”, the “cleaved RNA product abundance” value under setting [2] was determined as 0.159. “ACAGACGAAGGAGCCGCAAAGAAGTTATTAAAGAATGAATAATCCCTCAATATAAATATCTCTCACTTATTTAAA”: the “cleaved RNA product abundance” value by setting is: under setting [1], 0.0737; under setting [2], 0.114. Take “ACAGACGAAGGAGCCGCAAAGAAGTTATTAAAGCATGAATAATCCCTCAATATAAATATCTCTCACTTATTTAAA”: the “cleaved RNA product abundance” value under setting [1] was determined as 0.119 and the “cleaved RNA product abundance” value under setting [2] was determined as 0.11. Consider “ACAGACGAAGGAGCCGCAAAGAAGTTATTAAAGCATTAATAATCCCTCAATATAAATATCTCTCACTTATTTAAA”, for which the “cleaved RNA product abundance” value under setting [2] came out at 0.134. For the sequence “ACAGACGAAGGAGCCGCAAAGAAGTTATTAAAGGAAGAATAATCCCTCAATATAAATATCTCTCACTTATTTAAA”, the “cleaved RNA product abundance” value by setting is: under setting [1], 0.0711; under setting [2], 0.112. For “ACAGACGAAGGAGCCGCAAAGAAGTTATTAAAGGACGAATAATCCCTCAATATAAATATCTCTCACTTATTTAAA”, under setting [2], the “cleaved RNA product abundance” value was 0.103. As to “ACAGACGAAGGAGCCGCAAAGAAGTTATTAAAGGAGGAATAATCCCTCAATATAAATATCTCTCACTTATTTAAA”, the “cleaved RNA product abundance” value under setting [2] is 0.25. Same read-out and setting: the figure for “ACAGACGAAGGAGCCGCAAAGAAGTTATTAAAGGATAAATAAACCCTCAATATAAATATCTCTCACTTATTTAAA” is 0.128. As to “ACAGACGAAGGAGCCGCAAAGAAGTTATTAAAGGATAAATAATCCCTCAATATAAATATCTCTCACTTATTTAAA”, the “cleaved RNA product abundance” value under setting [1] was 0.108 and the “cleaved RNA product abundance” value under setting [2] is 0.139. Turning to “ACAGACGAAGGAGCCGCAAAGAAGTTATTAAAGGATAAATAATCTCTCAATATAAATATCTCTCACTTATTTAAA”, the “cleaved RNA product abundance” value under setting [2] amounted to 0.112.

For “ACAGACGAAGGAGCCGCAAAGAAGTTATTAAAGGATCAATAATCCCTCAATATAAATATCTCTCACTTATTTAAA”, under setting [2], the “cleaved RNA product abundance” value came to 0.115. For “ACAGACGAAGGAGCCGCAAAGAAGTTATTAAAGGATGAAAAATCCCTCAATATAAATATCTCTCACTTATTTAAA”, the “cleaved RNA product abundance” value under setting [1] stood at 0.104 and the “cleaved RNA product abundance” value under setting [2] came to 0.183. Turning to “ACAGACGAAGGAGCCGCAAAGAAGTTATTAAAGGATGAACAATCCCTCAATATAAATATCTCTCACTTATTTAAA”, the “cleaved RNA product abundance” value by setting is: under setting [1], 0.0976; under setting [2], 0.207. On to “ACAGACGAAGGAGCCGCAAAGAAGTTATTAAAGGATGAAGAATCCCTCAATATAAATATCTCTCACTTATTTAAA”, for which the “cleaved RNA product abundance” value under setting [2] worked out at 0.232.

With “ACAGACGAAGGAGCCGCAAAGAAGTTATTAAAGGATGAATAAACCCTCAATATAAATATCTCTCACTTATTTAAA”, the “cleaved RNA product abundance” value runs as follows: under setting [1], 0.115; under setting [2], 0.101.

For “ACAGACGAAGGAGCCGCAAAGAAGTTATTAAAGGATGAATAACCCCTCAATATAAATATCTCTCACTTATTTAAA”, the “cleaved RNA product abundance” value amounted to 0.105 under setting [1] and 0.108 under setting [2]. Turning to “ACAGACGAAGGAGCCGCAAAGAAGTTATTAAAGGATGAATAATACCTCAATATAAATATCTCTCACTTATTTAAA”, the “cleaved RNA product abundance” value under setting [1] came to 0.0942, the “cleaved RNA product abundance” value under setting [2] was determined as 0.121 and the “cleaved RNA product abundance” value under setting [3] came to 0.108.

For “ACAGACGAAGGAGCCGCAAAGAAGTTATTAAAGGATGAATAATCACTCAATATAAATATCTCTCACTTATTTAAA”, the “cleaved RNA product abundance” value reads like this: under setting [1], 0.0796; under setting [2], 0.14. For the sequence “ACAGACGAAGGAGCCGCAAAGAAGTTATTAAAGGATGAATAATCCATCAATATAAATATCTCTCACTTATTTAAA”, the “cleaved RNA product abundance” value under setting [1] was 0.141 and the “cleaved RNA product abundance” value under setting [2] came to 0.178. The like results for “ACAGACGAAGGAGCCGCAAAGAAGTTATTAAAGGATGAATAATCCCACAATATAAATATCTCTCACTTATTTAAA” were, in that order, 0.113 and 0.173. Take “ACAGACGAAGGAGCCGCAAAGAAGTTATTAAAGGATGAATAATCCCCCAATATAAATATCTCTCACTTATTTAAA”: the “cleaved RNA product abundance” value was 0.152 under setting [1] and 0.156 under setting [2]. For the sequence “ACAGACGAAGGAGCCGCAAAGAAGTTATTAAAGGATGAATAATCCCCTCAATATAAATATCTCTCACTTATTTAA”, the “cleaved RNA product abundance” value under setting [2] stood at 0.159.
